Source: paper PMC9270254

Experiments:
human IgM (human) = assay: SPR
human IgG (human) = assay: SPR

single-chain mouse globular part of C1q (from UniProt P98086 110-245; Q02105 116-246; P14106 115-253) (domain or fragment)
Kd1 (first phase, two-exponential fit) (human IgM (human)): 8.5 nM
kd1 (first phase, two-exponential fit) (human IgM (human)): 0.029 s⁻¹
kd2 (second phase, two-exponential fit) (human IgM (human)): 0.0023 s⁻¹
Kd1 (first phase, two-exponential fit) (human IgG (human)): 6.8 nM
kd1 (first phase, two-exponential fit) (human IgG (human)): 0.032 s⁻¹
kd2 (second phase, two-exponential fit) (human IgG (human)): 0.0021 s⁻¹
